Source: IntAct's records for PubMed 20133654

Experiments:
[1] = biological target: obsl1_human OBSL1 (UniProt O75147)
[2] = biological target: obscn_human OBSCN (UniProt Q5VST9)

Chain of obsl1_human OBSL1 (O75147 whole entry): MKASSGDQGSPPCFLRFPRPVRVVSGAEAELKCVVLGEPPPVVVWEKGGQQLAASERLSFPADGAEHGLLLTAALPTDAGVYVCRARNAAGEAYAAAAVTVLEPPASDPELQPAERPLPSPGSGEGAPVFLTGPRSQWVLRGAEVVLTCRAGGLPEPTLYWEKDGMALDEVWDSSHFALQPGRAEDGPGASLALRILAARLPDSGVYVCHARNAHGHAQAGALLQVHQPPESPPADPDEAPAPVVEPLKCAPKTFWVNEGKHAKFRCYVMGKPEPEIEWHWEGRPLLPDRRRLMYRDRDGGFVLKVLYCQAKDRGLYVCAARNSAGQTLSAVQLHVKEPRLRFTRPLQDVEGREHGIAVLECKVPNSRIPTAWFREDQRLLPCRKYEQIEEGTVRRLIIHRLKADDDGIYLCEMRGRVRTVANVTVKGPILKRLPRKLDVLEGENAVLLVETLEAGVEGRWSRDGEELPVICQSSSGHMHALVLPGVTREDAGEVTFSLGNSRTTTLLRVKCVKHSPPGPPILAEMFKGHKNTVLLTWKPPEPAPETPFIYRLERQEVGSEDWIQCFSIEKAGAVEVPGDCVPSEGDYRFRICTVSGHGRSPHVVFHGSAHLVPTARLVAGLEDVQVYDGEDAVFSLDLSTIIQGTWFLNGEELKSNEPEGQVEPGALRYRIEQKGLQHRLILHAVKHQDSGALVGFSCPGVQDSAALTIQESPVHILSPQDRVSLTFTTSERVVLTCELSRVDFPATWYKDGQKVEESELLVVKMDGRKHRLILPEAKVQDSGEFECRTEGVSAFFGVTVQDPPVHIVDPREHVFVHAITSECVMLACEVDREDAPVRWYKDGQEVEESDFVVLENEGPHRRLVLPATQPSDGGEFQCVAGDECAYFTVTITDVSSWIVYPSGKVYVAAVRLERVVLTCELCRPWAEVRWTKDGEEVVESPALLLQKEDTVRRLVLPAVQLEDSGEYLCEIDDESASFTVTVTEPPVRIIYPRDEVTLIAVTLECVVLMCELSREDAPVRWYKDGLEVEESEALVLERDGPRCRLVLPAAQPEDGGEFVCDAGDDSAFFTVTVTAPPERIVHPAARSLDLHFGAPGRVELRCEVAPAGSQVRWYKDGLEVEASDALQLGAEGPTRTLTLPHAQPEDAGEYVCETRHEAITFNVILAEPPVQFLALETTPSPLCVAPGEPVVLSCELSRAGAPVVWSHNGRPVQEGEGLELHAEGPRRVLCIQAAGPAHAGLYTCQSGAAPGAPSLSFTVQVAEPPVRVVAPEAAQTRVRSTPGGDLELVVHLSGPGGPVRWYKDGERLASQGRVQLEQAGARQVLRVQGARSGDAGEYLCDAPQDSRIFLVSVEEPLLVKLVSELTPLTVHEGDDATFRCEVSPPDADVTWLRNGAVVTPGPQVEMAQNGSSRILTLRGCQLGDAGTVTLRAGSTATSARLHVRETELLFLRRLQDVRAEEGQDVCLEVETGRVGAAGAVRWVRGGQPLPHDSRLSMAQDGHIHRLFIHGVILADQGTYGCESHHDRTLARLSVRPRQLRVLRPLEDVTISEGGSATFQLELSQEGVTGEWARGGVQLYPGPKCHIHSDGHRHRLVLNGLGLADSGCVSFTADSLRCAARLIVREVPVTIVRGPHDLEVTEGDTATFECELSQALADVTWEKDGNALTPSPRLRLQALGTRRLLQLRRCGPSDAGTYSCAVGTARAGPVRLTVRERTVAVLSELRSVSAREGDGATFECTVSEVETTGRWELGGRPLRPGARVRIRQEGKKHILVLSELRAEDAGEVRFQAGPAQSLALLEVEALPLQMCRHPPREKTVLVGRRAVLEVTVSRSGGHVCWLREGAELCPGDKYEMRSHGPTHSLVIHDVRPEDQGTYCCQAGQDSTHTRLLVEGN

Row | Substance | effect of a mutation on the interaction [1] | effect of a mutation on the interaction [2]
1 | Titin (Homo sapiens), Q8WZ42 A34260Y | disrupting interaction | disrupting interaction
2 | Titin (Homo sapiens), Q8WZ42 I34306N |  | increasing interaction
